Reference: patent publication US12247058 (Bristol-Myers Squibb, dated 2025)
Non-standard residues stand in square brackets, D forms with d. Phe(4-Ac) = CC(=O)c1ccc(C[C@H](N)C(=O)O)cc1

Legend:
Test in all cases: cell-based or functional assay
[1] = biological target: T1, human β-klotho with a C-terminal FLAG tag, stably expressed in a clonal HEK-293 cell line (human, UniProt Q86Z14 1-1044)
T1 sequence: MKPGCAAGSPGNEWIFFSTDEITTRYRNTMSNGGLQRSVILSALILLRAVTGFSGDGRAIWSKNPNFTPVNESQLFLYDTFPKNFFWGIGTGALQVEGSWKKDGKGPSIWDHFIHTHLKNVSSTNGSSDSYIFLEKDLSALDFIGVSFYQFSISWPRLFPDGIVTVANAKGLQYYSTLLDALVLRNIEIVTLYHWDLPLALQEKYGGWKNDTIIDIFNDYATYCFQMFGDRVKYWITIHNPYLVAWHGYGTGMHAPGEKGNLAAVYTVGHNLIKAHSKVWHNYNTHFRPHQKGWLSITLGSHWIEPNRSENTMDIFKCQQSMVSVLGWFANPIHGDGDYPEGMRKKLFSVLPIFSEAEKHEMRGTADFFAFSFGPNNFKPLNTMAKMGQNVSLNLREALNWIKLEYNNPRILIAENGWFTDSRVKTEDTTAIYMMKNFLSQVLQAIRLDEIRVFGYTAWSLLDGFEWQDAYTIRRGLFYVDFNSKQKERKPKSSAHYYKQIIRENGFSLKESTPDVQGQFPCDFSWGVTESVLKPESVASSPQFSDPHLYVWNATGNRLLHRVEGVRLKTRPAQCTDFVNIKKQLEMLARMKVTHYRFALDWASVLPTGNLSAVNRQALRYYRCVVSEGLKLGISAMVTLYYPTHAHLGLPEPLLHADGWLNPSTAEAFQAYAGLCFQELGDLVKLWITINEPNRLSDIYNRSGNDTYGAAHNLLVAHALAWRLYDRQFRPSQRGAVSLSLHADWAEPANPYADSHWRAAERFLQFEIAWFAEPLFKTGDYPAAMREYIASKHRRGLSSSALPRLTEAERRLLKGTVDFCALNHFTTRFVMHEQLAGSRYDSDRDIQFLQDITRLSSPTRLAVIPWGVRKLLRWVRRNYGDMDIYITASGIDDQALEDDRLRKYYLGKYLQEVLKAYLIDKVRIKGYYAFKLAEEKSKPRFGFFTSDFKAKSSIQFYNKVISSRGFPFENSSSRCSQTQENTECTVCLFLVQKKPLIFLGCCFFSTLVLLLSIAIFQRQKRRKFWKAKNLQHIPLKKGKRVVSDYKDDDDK

[2] = biological target: T2, human β-klotho, stably co-expressed with the Elk1-luciferase trans-reporter in HEK293 cells (HEK Luc Clone2) (human, UniProt Q86Z14 1-1044)
T2 sequence: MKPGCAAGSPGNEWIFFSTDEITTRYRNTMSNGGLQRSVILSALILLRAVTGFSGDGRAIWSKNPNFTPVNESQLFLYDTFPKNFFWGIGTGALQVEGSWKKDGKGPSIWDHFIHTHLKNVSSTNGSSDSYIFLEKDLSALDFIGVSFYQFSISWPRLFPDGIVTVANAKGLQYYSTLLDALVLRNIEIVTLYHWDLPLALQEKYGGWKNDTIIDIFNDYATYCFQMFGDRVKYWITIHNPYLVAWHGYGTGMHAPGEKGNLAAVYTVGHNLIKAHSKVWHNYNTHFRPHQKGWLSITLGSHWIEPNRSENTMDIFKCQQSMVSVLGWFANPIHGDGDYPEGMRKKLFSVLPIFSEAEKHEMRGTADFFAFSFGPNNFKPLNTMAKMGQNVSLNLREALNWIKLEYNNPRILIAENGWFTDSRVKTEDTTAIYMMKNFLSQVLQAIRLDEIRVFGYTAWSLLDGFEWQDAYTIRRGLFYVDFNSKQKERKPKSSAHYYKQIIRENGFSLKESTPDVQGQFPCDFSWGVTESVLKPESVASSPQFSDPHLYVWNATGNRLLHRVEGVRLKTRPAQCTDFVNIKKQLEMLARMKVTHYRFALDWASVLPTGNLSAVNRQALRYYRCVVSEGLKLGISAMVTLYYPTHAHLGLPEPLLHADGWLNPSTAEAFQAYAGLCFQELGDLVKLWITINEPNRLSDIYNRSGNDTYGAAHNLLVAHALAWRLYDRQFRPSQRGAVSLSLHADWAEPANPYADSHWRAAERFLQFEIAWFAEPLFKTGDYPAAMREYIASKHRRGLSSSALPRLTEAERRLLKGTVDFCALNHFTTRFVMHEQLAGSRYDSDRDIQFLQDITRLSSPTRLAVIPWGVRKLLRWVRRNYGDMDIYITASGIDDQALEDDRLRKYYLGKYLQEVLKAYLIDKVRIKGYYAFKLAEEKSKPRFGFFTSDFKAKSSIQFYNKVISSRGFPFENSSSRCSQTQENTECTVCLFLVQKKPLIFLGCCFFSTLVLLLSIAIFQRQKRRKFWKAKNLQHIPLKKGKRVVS

[3] = biological target: T2, human β-klotho, stably co-expressed …; remark: listed apart in the source
[4] = biological target: T1, human β-klotho with a C-terminal FLAG …; remark: listed apart in the source

B1: Pegylated Compound 21 (ligand)
chain: MHPIPDSSPLLQFGGQVRQRYLYTDDAQQTEAHLEIREDGTVGGAADQSPESLLQLKALKPGVIQILGVKTSRFLCQRPDGALYGSLHFDPEACSFRELLLEDGYNVY[Phe(4-Ac)](PEG about 30 kDa)SEAHGLPLHLGSGRDPAPRGPARFLPLPGLPPAPPEPPGILAPQPPDVGSSDPLSMVEPSQGRSPSYAS
[1]
  EC50 in the pERK assay: 30 nM

B2: Pegylated Compound 2 (ligand)
chain: MHPIPDSSPLLQFGGQVRQRYLYTDDAQQTEAHLEIREDGTVGGAADQSPESLLQLKALKPGVIQILGVKTSRFLCQRPDGALYGSLHFDPEACSFRELLLEDGYNVY[Phe(4-Ac)](PEG about 30 kDa)SEAHGLPLHLGSGRGPARFLPLPGLPPAPPEPPGILAPQPPDVGSSDPLSMVEPSQGRSPSYAS
[2]
  EC50 (geometric mean), 5 hour Elk1-luciferase assay: 5.4 nM
  pEC50, 5 hour Elk1-luciferase assay: 8.27 log M
[3]
  Geometric Mean EC50, Elk1-luciferase assay: 5.9 nM
[1]
  EC50 in the pERK assay: 28 nM

B3: Pegylated Compound 22 (ligand)
chain: MHPIPDSSPLLQFGGQVRQRYLYTDDAQQTEAHLEIREDGTVGGAADQSPESLLQLKALKPGVIQILGVKTSRFLCQRPDGALYGSLHFDPEACSFRELLLEDGYNVY[Phe(4-Ac)](PEG 30 kDa)SEAHGLPLHLSGGPAPRGPARFLPLPGLPPAPPEPPGILAPQPPDVGSSDPLSMVEPSQGRSPSYAS
[1]
  EC50 in the pERK assay: 36 nM

B4: Pegylated Compound 20 (ligand)
chain: MHPIPDSSPLLQFGGQVRQRYLYTDDAQQTEAHLEIREDGTVGGAADQSPESLLQLKALKPGVIQILGVKTSRFLCQRPDGALYGSLHFDPEACSFRELLLEDGYNVY[Phe(4-Ac)](PEG about 30 kDa)SEAHGLPLHLGGHRDPAPRGPARFLPLPGLPPAPPEPPGILAPQPPDVGSSDPLSMVEPSQGRSPSYAS
[1]
  EC50 in the pERK assay: 42 nM

B5: Pegylated Compound 1 (ligand)
chain: MHPIPDSSPLLQFGGQVRQRYLYTDDAQQTEAHLEIREDGTVGGAADQSPESLLQLKALKPGVIQILGVKTSRFLCQRPDGALYGSLHFDPEACSFRELLLEDGYNVY[Phe(4-Ac)](PEG 30 kDa)SEAHGLPLHLPGNKSPHRDPAPRGPARFLPLPGLPPAPPEPPGILAPQPPDVGSSDPLSMVGPSQGRSPSYAS
[2]
  EC50 (geometric mean), 5 hour Elk1-luciferase assay: 3.6 nM
  pEC50, 5 hour Elk1-luciferase assay: 8.44 log M
[4]
  pERK EC50: 6.7 nM
[1]
  EC50 in the pERK assay: 14 nM

B6: Compound 181 [Fc(hIgG1f_1.1_186)-L7-FGF21 (Cmp. 2)] (Fc fusion)
chain: EPKSSDKTHTCPPCPAPEAEGAPSVFLFPPKPKDTLMISRTPEVTCVVVDVSHEDPEVKFNWYVDGVEVHNAKTKPREEQYNSTYRVVSVLTVLHQDWLNGKEYKCKVSNKALPSSIEKTISKAKGQPREPQVYTLPPSREEMTKNQVSLTCLVKGFYPSDIAVEWESNGQPENNYKTTPPVLDSDGSFFLYSKLTVDKSRWQQGNVFSCSVMHEALHNHYTQKSLSLSPGKGGGGGSGGGSGGGGSHPIPDSSPLLQFGGQVRQRYLYTDDAQQTEAHLEIREDGTVGGAADQSPESLLQLKALKPGVIQILGVKTSRFLCQRPDGALYGSLHFDPEACSFRELLLEDGYNVYQSEAHGLPLHLGSGRGPARFLPLPGLPPAPPEPPGILAPQPPDVGSSDPLSMVEPSQGRSPSYAS
[3]
  Geometric Mean EC50, Elk1-luciferase assay: 0.8 nM

B7: Compound 32 (Non-Pegylated Control) (ligand)
chain: MHHHHHHPIPDSSPLLQFGGQVRQRYLYTDDAQQTEAHLEIREDGTVGGAADQSPESLLQLKALKPGVIQILGVKTSRFLCQRPDGALYGSLHFDPEACSFRELLLEDGYNVYQSEAHGLPLHLPGNKSPHRDPAPRGPARFLPLPGLPPALPEPPGILAPQPPDVGSSDPLSMVGPSQGRSPSYAS
[1]
  EC50 in the pERK assay: 8 nM
